The results in this text go back to paper PMC9853177 (2023).

The experiment addresses linear tetra-ubiquitin (M1-linked Ub4) (Homo sapiens, UniProt P0CG47). The experiment can be described thus: ITC.

B1: HOIL-1 (protein)
chain: MDEKTKKAEEMALSLTRAVAGGDEQVAMKCAIWLAEQRVPLSVQLKPEVSPTQDIRLWVSVEDAQMHTVTIWLTVRPDMTVASLKDMVFLDYGFPPVLQQWVIGQRLARDQETLHSHGVRQNGDSAYLYLLSARNTSLNPQELQRERQLRMLEDLGFKDLTLQPRGPLEPGPPKPGVPQEPGRGQPDAVPEPPPVGWQCPGCTFINKPTRPGCEMCCRARPEAYQVPASYQPDEEERARLAGEEEALRQYQQRKQQQQEGNYLQHVQLDQRSLVLNTEPAECPVCYSVLAPGEAVVLRECLHTFCRECLQGTIRNSQEAEVSCPFIDNTYSCSGKLLEREIKALLTPEDYQRFLDLGISIAENRSAFSYHCKTPDCKGWCFFEDDVNEFTCPVCFHVNCLLCKAIHEQMNCKEYQEDLALRAQNDVAARQTTEMLKVMLQQGEAMRCPQCQIVVQKKDGCDWIRCTVCHTEICWVTKGPRWGPGGPGDTSGGCRCRVNGIPCHPSCQNCH
Turning to B1, binding was put at a Kd of 90 nM.
